Experimental findings from paper PMC11039992, “Distinct functions for the paralogous RBM41 and U11/U12-65K proteins in the minor spliceosome” are described below.

Data set [1] addresses T1, RBM41 RRM (C-terminal fragment) (Homo sapiens, UniProt Q96IZ5 267-413).
T1 sequence: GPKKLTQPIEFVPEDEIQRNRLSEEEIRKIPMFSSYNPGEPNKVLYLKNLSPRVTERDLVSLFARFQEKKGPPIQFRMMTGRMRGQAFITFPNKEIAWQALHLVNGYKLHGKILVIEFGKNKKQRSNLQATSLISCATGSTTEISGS
The data set can be described thus: EMSA; 20 mM HEPES-KOH pH 8.0, 100 mM KCl, 1.5 mM MgCl2, 5% glycerol, 0.1 ug/ul BSA, 1 ug/ul yeast RNA, 1 U/ul RiboLock; 5 nM RNA, 0.25-25 uM protein; 1 h on ice, gel. To be noted: protein: recombinant; tags: GST tag removed with PreScission protease (untagged); label: 5' 32P; hairpin. On the technique in general: Mobility shift assays separate free from complexed probe on a gel.

For data set [2], the target named is T2, U11/U12-65K C-terminal RRM (65K C-RRM) (Homo sapiens, UniProt Q96LT9 380-517).
T2 sequence: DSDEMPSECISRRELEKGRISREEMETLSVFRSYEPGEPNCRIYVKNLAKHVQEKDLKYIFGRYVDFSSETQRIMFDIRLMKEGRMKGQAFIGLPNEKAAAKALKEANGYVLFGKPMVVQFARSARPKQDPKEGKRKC
Described as above. The following applies: protein: recombinant; tags: GST tag removed with PreScission protease (untagged); label: 5' 32P; hairpin.

By Kd is commonly meant the constant that tells how readily two partners part at equilibrium. GCCACCUACUUCGUGGC (structured_RNA) [U6atac-(92-108) hairpin]: the values for the Kd in data set [1] and in data set [2] were 3780 nM and 2070 nM, respectively.

For the molecule CCCGCCUACUUUGCGGG (structured_RNA) [U12-(109-125) hairpin], the Kd in data set [1] was 2140 nM; in data set [2], 1040 nM.

For GGGCGGAUGAAACGCCC (structured_RNA) [U12comp control hairpin], the binding result in data set [1] and in data set [2] was “no binding” in each case.
